Source: patent publication US20240132625A1
Values belong to the substance of their own block, whether it stands above or below them.

Tests used:
[1] = molecular target: CD20 immobilized on a sensor tip (UniProt P11836); test: BLI, CD20 on tip
[2] = molecular target: CD20 immobilized on a sensor tip (UniProt P11836); test: BLI, human CD20 immobilized on the sensor tip, antibody in half dilution from 50 nM, 1:1 fit
CD20 on SU-DHL5 cells = CD20 on SU-DHL5 cells (UniProt P11836); test: flow cytometry on SU-DHL5 cells, muGFP signal, 10 nM antibody
[3] = molecular target: CD20 immobilized on a sensor tip (UniProt P11836); test: BLI, […], antibody 6.25-50.0 nM, 1:1 fit
[4] = molecular target: CD20 immobilized on a sensor tip (UniProt P11836); test: BLI, CD20 on tip; effective KD
[5] = molecular target: HER2 ectodomain (biotinylated Her2/ERBB2, Sino Biological) (human) (UniProt P04626); test: BLI, HER2 ectodomain immobilized on the sensor tip, antibody in half dilution from 500 nM, 1:1 fit
[6] = molecular target: HER2 ectodomain (biotinylated Her2/ERBB2, Sino Biological) (human) (UniProt P04626); test: BLI, HER2 ectodomain on tip; effective KD
[7] = molecular target: HER2 ectodomain (biotinylated Her2/ERBB2, Sino Biological) (human) (UniProt P04626); test: BLI, HER2 ectodomain immobilized on the sensor tip, antibody in half dilution from 250 nM, 1:1 fit
[8] = molecular target: HER2 ectodomain (biotinylated Her2/ERBB2, Sino Biological) (human) (UniProt P04626); test: BLI, antigen on streptavidin tip, 1:1 fit
[9] = molecular target: HER2 ectodomain (biotinylated Her2/ERBB2, Sino Biological) (human) (UniProt P04626); test: BLI, […], antibody 3.1-[…], 1:1 fit
[10] = molecular target: HER2 ectodomain (biotinylated Her2/ERBB2, Sino Biological) (human) (UniProt P04626); test: BLI, antigen on streptavidin tip; below the instrument's limit
[11] = molecular target: HER2 ectodomain (biotinylated Her2/ERBB2, Sino Biological) (human) (UniProt P04626); test: BLI, […], antibody 6.25-50 nM, 1:1 fit
[12] = molecular target: HER2 ectodomain (biotinylated Her2/ERBB2, Sino Biological) (human) (UniProt P04626); test: BLI, HER2 ectodomain on tip
[13] = molecular target: Receptor-binding domain of the SARS-CoV-2 spike protein (biotinylated, Acrobio system) (SARS-CoV-2) (UniProt P0DTC2); test: BLI, antigen on streptavidin tip, 1:1 fit
[14] = molecular target: Receptor-binding domain of the SARS-CoV-2 spike protein (biotinylated, Acrobio system) (SARS-CoV-2) (UniProt P0DTC2); test: BLI, antigen on streptavidin tip; below the instrument's limit
[15] = molecular target: Receptor-binding domain of the SARS-CoV-2 spike protein (biotinylated, Acrobio system) (SARS-CoV-2) (UniProt P0DTC2); test: BLI, antigen on streptavidin tip

- Kd [1]: 30.4 nM
- koff [2]: 0.01 s⁻¹
- kon [2]: 330000 M⁻¹ s⁻¹
Substance: Obinutuzumab(Y101L) (antibody)

- percent bound to SU-DHL5 cells at 10 nM (CD20 on SU-DHL5 cells): 90%
Substance: SLy1(254-316)^(H)-Obinutuzumab(F101L)/HetFc-SDF-1α(8-67)^(H) labeled with muGFP at the C-terminus of the light chain (antibody)

- koff [3]: 2.3e-05 s⁻¹
- kon [3]: 180000 M⁻¹ s⁻¹
- Kd [4]: 0.13 nM
Substance: SLy1(254-316)^(H)-Obinutuzumab(Y101L)/HetFc-SDF-1α(8-67)^(H) (antibody)

- Kd [5]: 373 nM
Substance: SLy1(254-316)^(H)-Trastuzumab(N30A/H91A/Y100A)/HetFc (antibody)

- Kd [6]: < 0.8 nM
- Kd [7]: 0.8 nM
- koff [7]: 5.8e-05 s⁻¹
- kon [7]: 71000 M⁻¹ s⁻¹
Substance: SLy1(254-316)^(H)-Trastuzumab(N30A/H91A/Y100A)/HetFc-SDF-1α(8-67)^(H) (antibody)

- kon [9]: 310000 M⁻¹ s⁻¹
- kon [8]: 290000 M⁻¹ s⁻¹
- Kd [10]: < 0.01 nM
Substance: Trastuzumab(N30A/H91A)-SDF-1α(8-67)^(H) (antibody)

Further lines, the substance ahead of its results:

Substance: Trastuzumab(N30A/H91A) (antibody)
- Kd [8]: 2.1 nM
- kon [8]: 190000 M⁻¹ s⁻¹

Substance: Trastuzumab(N30A/H91A)-HomoCC^(H) (antibody)
- Kd [6]: < 0.01 nM

Substance: Trastuzumab(N30A/H91A)-SDF-1α(8-67)^(L) (antibody)
- Kd [6]: < 0.01 nM
- koff [11]: < 1e-07 s⁻¹
- kon [11]: 189000 M⁻¹ s⁻¹

Substance: Trastuzumab(N30A/H91A/Y100A) (antibody)
- Kd [12]: 243 nM

Substance: glCV30-SDF-1α(8-67)^(H) (antibody)
- kon [13]: 770000 M⁻¹ s⁻¹
- Kd [14]: < 0.01 nM
- fold increase of binding avidity over glCV30 [15]: > 130 fold
